Key:
Assay in all cases: EMSA
[1] = molecular target: MeCP2 full-length, e2 isoform (Homo sapiens) (UniProt P51608); settings: EMSA: 20 mM HEPES pH 7.5, 75 mM NaCl, 125 mM KCl, 50 uM EDTA, 2.5 mM beta-mercaptoethanol, 5% glycerol, BSA, 1.58 uM 47 bp competitor DNA (absent in free DNA …)
[2] = molecular target: MeCP2 R133G R133G (Homo sapiens) (UniProt P51608); settings: apparent, competitor DNA, EMSA: 20 mM HEPES pH 7.5, 75 mM NaCl, 125 mM KCl, 50 uM EDTA, 2.5 mM beta-mercaptoethanol, 5% glycerol, BSA, 1.58 uM 47 bp competitor DNA (absent in free DNA …)
MeCP2 MBD (Homo sapiens) = MeCP2 MBD (Homo sapiens) (UniProt P51608); settings: EMSA: 20 mM HEPES pH 7.5, 75 mM NaCl, 125 mM KCl, 50 uM EDTA, 2.5 mM beta-mercaptoethanol, 5% glycerol, BSA, 1.58 uM 47 bp competitor DNA (absent in free DNA …)
[3] = apparent, no competitor DNA, meCpG at -1

Question: What does the source list for “ATGGAACACATTGCACAGGATGTATATATCTGACACGTGCCTGGAGACTAGGGAGTAATCCCCTTGGCGGTTAAAACGCGGGGGACAGCGCGTACGTGCGTTTAAGCGGTGCTAGAGCTGTCTACGACCAATTGAGCGGCCTCGGCACCGGGATTCTCCAGGGCGGCCGCGTATT (double strand) [15-N601-15 nucleosome 81 meCpA]”?
Answer: Kd ([1]; apparent, H1.0 1-97 prebound, competitor DNA, linker meCpA 81 bp from dyad): 382 nM; Kd ([1]; apparent, H1.0 25-97 prebound, competitor DNA, linker meCpA 81 bp from dyad): 295 nM

Question: For “ATGGAACACATTGCACAGGATGTATATATCTGACACGTGCCTGGAGACTAGGGAGTAATCCCCTTGGCGGTTAAAACGCGGGGGACAGCGCGTACGTGCGTTTAAGCGGTGCTAGAGCTGTCTACGACCAATTGAGCGGCCTCGGCACCGGGATTCTCCAGGGCGGCCGCGTATT (double strand) [15-N601-15 nucleosome -1 meCpG]”, which Kd ([1]; meCpG at -1) is on record?
Answer: 130 nM

Question: What about the Kd ([2]; meCpG at -1) of the same sequence?
Answer: 522 nM

Question: And the Kd (MeCP2 MBD (Homo sapiens); meCpG at -1)?
Answer: 812 nM

Question: For “ATGGAACACATTGCACAGGATGTATATATCTGACACGTGCCTGGAGACTAGGGAGTAATCCCCTTGGCGGTTAAAACGCGGGGGACAGCGCGTACGTGCGTTTAAGCGGTGCTAGAGCTGTCTACGACCAATTGAGCGGCCTCGGCACCGGGATTCTCCAGGGCGGCCGCGTATT (double strand) [15-N601-15 nucleosome -61 meCpG]”, which Kd ([1]; meCpG at -61 (GGCACCGGGATT)) is on record?
Answer: 137 nM

Question: And the Kd ([2]; meCpG at -61 (GGCACCGGGATT))?
Answer: 534 nM

Question: What about the Kd (MeCP2 MBD (Homo sapiens); meCpG at -61 (GGCACCGGGATT)) of the same sequence?
Answer: 809 nM

Question: For “CAGGATGTATATATCTGACACGTGCCTGGAGACTAGGGAGTAATCCCCTTGGCGGTTAAAACGCGGGGGACAGCGCGTACGTGCGTTTAAGCGGTGCTAGAGCTGTCTACGACCAATTGAGCGGCCTCGGCACCGGGATTCTCCA (double strand) [N601 nucleosome core particle -1 meCpG]”, which Kd [1, 3] is on record?
Answer: 44.2 nM

Question: And the Kd (MeCP2 MBD (Homo sapiens); [3])?
Answer: 50.7 nM

Question: For “CGGTACCTCGCGAATGCATCTAATGGAACACATTGCACAGGATGTATATATCTGACACGTGCCTGGAGACTAGGGAGTAATCCCCTTGGCGGTTAAAACGCGGGGGACAGAACGCCGGTGCGTTTAAGCGGTGCTAGAGCTGTCTACGACCAATTGAGCGGCCTGCGCACAGGGATTCTCCAGGGCGGCCGCGTATTGGATCCCGAGCC (double strand) [37-N601(mod)-27 nucleosome -6 meCpG]”, which Kd ([1]; meCpG at -6) is on record?
Answer: 57.4 nM

Question: For “CGGTACCTCGCGAATGCATCTAATGGAACACATTGCACAGGATGTATATATCTGACACGTGCCTGGAGACTAGGGAGTAATCCCCTTGGCGGTTAAAACGCGGGGGACAGAACGCCGGTGCGTTTAAGCGGTGCTAGAGCTGTCTACGACCAATTGAGCGGCCTGCGCACAGGGATTCTCCAGGGCGGCCGCGTATTGGATCCCGAGCC (double strand) [37-N601(mod)-27 nucleosome -56 meCpG]”, which Kd ([1]; meCpG at -56) is on record?
Answer: 55.8 nM

Question: For “CGGTACCTCGCGAATGCATCTAATGGAACACATTGCACAGGATGTATATATCTGACACGTGCCTGGAGACTAGGGAGTAATCCCCTTGGCGGTTAAAACGCGGGGGACAGAACGCCGGTGCGTTTAAGCGGTGCTAGAGCTGTCTACGACCAATTGAGCGGCCTGCGCACAGGGATTCTCCAGGGCGGCCGCGTATTGGATCCCGAGCC (double strand) [37-N601(mod)-27 nucleosome unmethylated]”, which Kd [1] is on record?
Answer: 82.1 nM

Question: How did the Kd ([1]; meCpG at +61) turn out when “CGGTACCTCGCGAATGCATCTAATGGAACACATTGCACAGGATGTATCCGGCTGACACGTGCCTGGAGACTAGGGAGTAATCCCCTTGGCGGTTAAAACGCGGGGGACAGAGCGTACGTGCGTTTAAGCGGTGCTAGAGCTGTCGCGCCCCAATTGAGCGGCCTCGGCACAGGGATTCTCCAGGGCGGCCGCGTATTGGATCCCGAGCC (double strand) [37-N601(mod2)-27 nucleosome +61 meCpG]” was run?
Answer: 62 nM

Question: For “CGGTACCTCGCGAATGCATCTAATGGAACACATTGCACAGGATGTATCCGGCTGACACGTGCCTGGAGACTAGGGAGTAATCCCCTTGGCGGTTAAAACGCGGGGGACAGAGCGTACGTGCGTTTAAGCGGTGCTAGAGCTGTCGCGCCCCAATTGAGCGGCCTCGGCACAGGGATTCTCCAGGGCGGCCGCGTATTGGATCCCGAGCC (double strand) [37-N601(mod2)-27 nucleosome -36 meCpG]”, which Kd ([1]; meCpG at -36) is on record?
Answer: 70.8 nM

Question: Which Kd [1] does the source give for “CGGTACCTCGCGAATGCATCTAATGGAACACATTGCACAGGATGTATCCGGCTGACACGTGCCTGGAGACTAGGGAGTAATCCCCTTGGCGGTTAAAACGCGGGGGACAGAGCGTACGTGCGTTTAAGCGGTGCTAGAGCTGTCGCGCCCCAATTGAGCGGCCTCGGCACAGGGATTCTCCAGGGCGGCCGCGTATTGGATCCCGAGCC (double strand) [37-N601(mod2)-27 nucleosome unmethylated]” here?
Answer: 91.9 nM

Question: For “GAGCCACAAAACCGGCGACGCTCACGGGTGCCCAGTTCGCGCGCCCACCTACCGTGTGAAGTCGTCACTCGGGCTTCTAAGTACGCTTAGCGCACGGTAGAGCGCAATCCAAGGCTAACCACCGTGCATCGATGTTGAAAGAGGCCCTCCGTCCTTATTACTTCAAGTCCCTGGGGTACCCGTTTCACTGCCA (double strand) [16-N603-30 +91 CG nucleosome 91 meCpG]”, which Kd ([1]; meCpG at 91) is on record?
Answer: 71.3 nM

Question: Which Kd ([1]; meCpG at 81) does the source give for “GAGCCACAAAATCACCGACGCCCGGGGGTGCCCAGTTCGCGCGCCCACCTACCGTGTGAAGTCGTCACTCGGGCTTCTAAGTACGCTTAGCGCACGGTAGAGCGCAATCCAAGGCTAACCACCGTGCATCGATGTTGAAAGAGGCCCTCCGTCCTTATTACTTCAAGTCCCTGGGGTACCCGTTTCACTGCCA (double strand) [16-N603-30 +81 CG nucleosome 81 meCpG]” here?
Answer: 65.5 nM

Question: Which Kd ([1]; asymmetric meCpA at 81) does the source give for “GAGCCACAAAATCACCGACGCTCACGGGTGCCCAGTTCGCGCGCCCACCTACCGTGTGAAGTCGTCACTCGGGCTTCTAAGTACGCTTAGCGCACGGTAGAGCGCAATCCAAGGCTAACCACCGTGCATCGATGTTGAAAGAGGCCCTCCGTCCTTATTACTTCAAGTCCCTGGGGTACCCGTTTCACTGCCA (double strand) [16-N603-30 nucleosome 81 meCpA]” here?
Answer: 65.3 nM

Question: What about the Kd (MeCP2 MBD (Homo sapiens); asymmetric meCpA at 81) of the same sequence?
Answer: 268 nM

Source: PMC13276077
